Data reported in publication PMC8041783, “A positive charge region of Salmonella FliI is required for ATPase formation and efficient flagellar protein export” (Communications Biology, 2021).
Where a chain is given by its changes, count along the chain named. Names may count otherwise.

B1: His-FliI(R26A/R27A/R33A/R76A/R93A) (enzyme)
chain: MTTRLTRWLTALDNFEAKMALLPAVAAYGRLTAATGLVLEATGLQLPLGATCIIERQDGPETKEVESEVVGFNGQALFLMPLEEVEGILPGAAVYARNGHGDGLQSGKQLPLGPALLGRVLDGGGKPLDGLPAPDTLETGALITPPFNPLQRTPIEHVLDTGVRAINALLTVGRGQRMGLFAGSGVGKSVLLGMMARYTRADVIVVGLIGERGREVKDFIENILGPDGRARSVVIAAPADVSPLLRMQGAAYATRIAEDFRDRGQHVLLIMDSLTRYAMAQREIALAIGEPPATKGYPPSVFAKLPALVERAGNGIHGGGSITAFYTVLTEGDDQQDPIADSARAILDGHIVLSRRLAEAGHYPAIDIEASISRAMTALITEQHYARVRLFKQLLSSFQRNRDLVSVGAYAKGSDPMLDKAITLWPQLEAFLQQGIFERADWEDSLQALDLIFPTV
notes: FliI of Salmonella enterica, UniProt P26465, with R26A/R27A/R33A/R76A/R93A; also called FliI-5A; His-FliI-5A; source: S. enterica SJW1368, pTrc99A-based plasmid co-expressing FliH; in lysate (Ni pull-down) and purified (Ni-NTA, then SEC to remove FliH)
B2: His-FliI(R26A/R27A/R33A) (enzyme)
chain: B1 chain with A76R, A93R
notes: FliI of Salmonella enterica, UniProt P26465, with R26A/R27A/R33A; also called FliI-3A; His-FliI-3A; source: E. coli BL21 (DE3) Star, pET19b-based plasmid, purified (Ni-NTA, Superdex 200 SEC)
B3: His-FliI(R26A/R27A/R33A/R76A) (enzyme)
chain: B1 chain with A93R
notes: FliI of Salmonella enterica, UniProt P26465, with R26A/R27A/R33A/R76A; also called FliI-4A; His-FliI-4A; source: S. enterica SJW1368, pTrc99A-based plasmid co-expressing FliH; in lysate (Ni pull-down) and purified (Ni-NTA, then SEC to remove FliH)

Columns and labels:
GST-FliJ = biological target: T1, GST-FliJ (Salmonella enterica, UniProt P0A1K1 1-147); assay: pull-down; GST affinity chromatography: purified His-FliI or His-FliI-5A mixed with purified GST or GST fusions, dialysed overnight against PBS at 4 °C; Glutathione Sepharose 4B; wash 10 ml PBS; elution with 10 mM reduced glutathione; CBB and anti-FliI immunoblot; details: both partners purified
T1 construct: FliJ of Salmonella enterica; source: S. enterica SJW1368, purified (Glutathione Sepharose 4B)
T1 sequence (P0A1K1 whole entry, the tested form may be a part): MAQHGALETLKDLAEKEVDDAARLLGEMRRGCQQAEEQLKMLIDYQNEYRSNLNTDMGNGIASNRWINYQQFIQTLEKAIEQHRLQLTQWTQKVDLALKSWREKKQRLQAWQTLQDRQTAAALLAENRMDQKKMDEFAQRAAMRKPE

[1] = biological target: the molecule itself; assay: negative-stain electron microscopy; purified FliI 1 μM in 50 mM Tris-HCl pH 8.0, 113 mM NaCl, 0.8 mM EDTA, 1 mM DTT with 5 mM MgCl2, 5 mM ADP, 5 mM AlCl3, 15 mM NaF, 20 min at room temperature; uranyl acetate stain; reference-free 2D class averages (RELION); monomers to hexameric ring

Binder | binding result (GST-FliJ) | stoichiometry N [1]
B1 | binds | 6
B2 | – | ~6
B3 | – | 6
